From patent publication US20100209436

Assays:
[1] = system: human OPA1 splice variant 7
[2] = system: human OPA1 splice variant 4
[3] = system: human OPA1 splice variant 8 (A210V polymorphism)
Chain of human OPA1 splice variant 8 (A210V polymorphism) (chain, as listed by the source A210V): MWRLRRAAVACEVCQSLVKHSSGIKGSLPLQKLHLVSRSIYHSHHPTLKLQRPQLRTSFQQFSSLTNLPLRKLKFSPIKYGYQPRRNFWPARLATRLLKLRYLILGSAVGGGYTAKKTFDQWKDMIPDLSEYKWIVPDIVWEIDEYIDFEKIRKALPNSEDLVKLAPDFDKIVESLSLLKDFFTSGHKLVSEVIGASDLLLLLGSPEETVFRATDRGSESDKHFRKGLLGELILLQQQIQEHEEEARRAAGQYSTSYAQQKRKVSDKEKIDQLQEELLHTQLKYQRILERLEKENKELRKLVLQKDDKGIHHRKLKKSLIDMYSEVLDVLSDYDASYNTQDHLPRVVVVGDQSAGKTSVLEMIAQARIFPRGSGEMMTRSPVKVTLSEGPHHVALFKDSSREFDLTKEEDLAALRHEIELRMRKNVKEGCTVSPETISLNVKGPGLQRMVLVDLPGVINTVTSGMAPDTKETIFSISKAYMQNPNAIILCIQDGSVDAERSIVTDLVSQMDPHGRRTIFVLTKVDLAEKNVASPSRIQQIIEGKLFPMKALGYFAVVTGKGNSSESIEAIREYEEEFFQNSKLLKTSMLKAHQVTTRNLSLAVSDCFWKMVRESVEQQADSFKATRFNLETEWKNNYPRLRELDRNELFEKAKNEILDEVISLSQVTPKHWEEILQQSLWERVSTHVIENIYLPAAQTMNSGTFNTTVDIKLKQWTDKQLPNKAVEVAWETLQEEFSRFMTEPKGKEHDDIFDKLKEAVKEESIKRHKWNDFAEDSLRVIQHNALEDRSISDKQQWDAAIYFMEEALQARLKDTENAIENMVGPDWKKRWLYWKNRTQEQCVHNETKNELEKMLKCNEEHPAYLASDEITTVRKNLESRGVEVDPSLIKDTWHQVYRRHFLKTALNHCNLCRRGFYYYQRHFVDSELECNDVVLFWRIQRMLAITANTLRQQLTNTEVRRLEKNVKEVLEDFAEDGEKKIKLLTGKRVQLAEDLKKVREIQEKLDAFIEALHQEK

Chain of human OPA1 splice variant 7 (chain, as listed by the source mutant): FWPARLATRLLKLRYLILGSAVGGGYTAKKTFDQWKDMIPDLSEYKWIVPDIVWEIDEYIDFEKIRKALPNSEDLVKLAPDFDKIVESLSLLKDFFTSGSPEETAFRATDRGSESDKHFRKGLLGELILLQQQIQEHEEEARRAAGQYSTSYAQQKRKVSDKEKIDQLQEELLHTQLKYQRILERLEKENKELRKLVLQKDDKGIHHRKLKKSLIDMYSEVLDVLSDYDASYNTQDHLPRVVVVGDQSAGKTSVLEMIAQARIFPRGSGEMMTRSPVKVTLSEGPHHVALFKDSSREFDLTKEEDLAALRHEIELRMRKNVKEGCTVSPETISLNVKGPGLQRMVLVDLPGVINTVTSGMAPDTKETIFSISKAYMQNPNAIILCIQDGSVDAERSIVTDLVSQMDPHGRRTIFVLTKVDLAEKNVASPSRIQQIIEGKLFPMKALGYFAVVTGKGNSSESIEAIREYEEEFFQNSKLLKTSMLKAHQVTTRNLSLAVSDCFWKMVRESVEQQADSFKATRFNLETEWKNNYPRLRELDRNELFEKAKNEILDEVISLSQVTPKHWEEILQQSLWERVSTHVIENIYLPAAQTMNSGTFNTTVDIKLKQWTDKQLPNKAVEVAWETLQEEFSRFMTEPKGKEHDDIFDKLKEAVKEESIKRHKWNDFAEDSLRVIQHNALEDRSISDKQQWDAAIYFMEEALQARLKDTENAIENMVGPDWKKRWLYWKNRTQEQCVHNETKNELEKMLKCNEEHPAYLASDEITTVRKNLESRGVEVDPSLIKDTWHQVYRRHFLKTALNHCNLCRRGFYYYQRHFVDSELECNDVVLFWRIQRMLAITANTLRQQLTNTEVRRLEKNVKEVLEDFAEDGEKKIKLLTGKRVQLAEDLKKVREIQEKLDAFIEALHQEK
Chain of human OPA1 splice variant 4 (chain, as listed by the source mutant): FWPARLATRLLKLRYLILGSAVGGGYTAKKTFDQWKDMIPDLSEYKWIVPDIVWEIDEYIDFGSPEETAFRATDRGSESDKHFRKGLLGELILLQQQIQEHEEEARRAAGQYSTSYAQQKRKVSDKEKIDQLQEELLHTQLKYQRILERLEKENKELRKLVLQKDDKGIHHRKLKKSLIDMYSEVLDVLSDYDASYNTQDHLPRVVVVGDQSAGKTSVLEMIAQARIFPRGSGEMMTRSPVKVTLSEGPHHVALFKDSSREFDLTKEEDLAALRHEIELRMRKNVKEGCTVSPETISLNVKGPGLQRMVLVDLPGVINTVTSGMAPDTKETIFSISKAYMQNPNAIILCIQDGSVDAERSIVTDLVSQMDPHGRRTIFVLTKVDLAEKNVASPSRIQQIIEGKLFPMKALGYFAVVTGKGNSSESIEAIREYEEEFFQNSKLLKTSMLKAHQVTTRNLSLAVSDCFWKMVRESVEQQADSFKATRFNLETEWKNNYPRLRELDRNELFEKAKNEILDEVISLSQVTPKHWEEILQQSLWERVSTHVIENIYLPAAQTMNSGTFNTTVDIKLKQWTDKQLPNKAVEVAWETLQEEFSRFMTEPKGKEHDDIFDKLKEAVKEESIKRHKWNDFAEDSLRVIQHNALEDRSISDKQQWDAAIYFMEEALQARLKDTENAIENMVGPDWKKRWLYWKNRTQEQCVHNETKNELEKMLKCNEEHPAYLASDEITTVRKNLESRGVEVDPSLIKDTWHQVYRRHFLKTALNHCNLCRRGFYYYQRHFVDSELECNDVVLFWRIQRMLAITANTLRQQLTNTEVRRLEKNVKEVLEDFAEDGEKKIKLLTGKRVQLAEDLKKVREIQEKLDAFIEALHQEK

| Substance | OPA1 processing (western blot, Δyta10Δyta12 yeast) [1] | OPA1 processing (western blot, Δyta10Δyta12 yeast) [2] | OPA1 processing (western blot, Δyta10Δyta12 yeast) [3] |
| --- | --- | --- | --- |
| Afg3l1^E567Q/paraplegin^E575Q complex (murine, both subunits proteolytically inactive) | small OPA1 isoforms were not detected when both, Afg 3l1 and paraplegin, or Afg 3l2 and paraplegin, contained point mutations in their proteolytic centres |  |  |
| Afg3l2^E574Q/paraplegin^E575Q complex (murine, both subunits proteolytically inactive) | small OPA1 isoforms were not detected when both, Afg 3l1 and paraplegin, or Afg 3l2 and paraplegin, contained point mutations in their proteolytic centres |  |  |
| hetero-oligomeric Afg3l1^E567Q/paraplegin complex (murine) | Slight OPA1 processing, in particular formation of S3, was detectable with both the Afg3l2^E567Q/paraplegin complex and the Afg3l1^E567Q/paraplegin complex | splice variant 4 was processed only to a very minor extent by the Afg3l2^E567Q/paraplegin complex but not by the Afg3l1^E567Q/paraplegin complex | A similar dependency was observed for splice variant 8 |
| hetero-oligomeric Afg3l2^E574Q/paraplegin complex (murine) | Slight OPA1 processing, in particular formation of S3, was detectable with both the Afg3l2^E567Q/paraplegin complex and the Afg3l1^E567Q/paraplegin complex | splice variant 4 was processed only to a very minor extent by the Afg3l2^E567Q/paraplegin complex | A similar dependency was observed for splice variant 8 |
| homo-oligomeric murine Afg3l2 complex (Yta10 (1-61)-Afg3l2 (36-802)-HA) | expression of each of the murine subunits, Afg3l2 or Afg3l1, in Δyta10Δyta12 cells promoted OPA1 processing; expression of Afg3l2 preferentially led to the formation of the S3 isoform | Afg3l1 and Afg3l2 complexes mediated processing of OPA1 splice variants 4 and 8 in a similar manner | Afg3l1 and Afg3l2 complexes mediated processing of OPA1 splice variants 4 and 8 in a similar manner |
| proteolytically inactive murine Afg3l1^E567Q (Yta10 (1-61)-Afg3l1^E567Q (25-789)-Myc) | Cleavage was abolished when point mutations were introduced in the proteolytic center of Afg3l1 or Afg3l2. |  |  |
| proteolytically inactive murine Afg3l2^E574Q (Yta10 (1-61)-Afg3l2^E574Q (36-802)-HA) | Cleavage was abolished when point mutations were introduced in the proteolytic center of Afg3l1 or Afg3l2. |  |  |
